{"source": "patent US20240374747A1", "about": "“FUSION PROTEIN OF VHH ANTIBODY AND STREPTAVIDIN MUTANT” (The University of Tokyo, priority 2023, published 2024)", "key": {"[1]": {"test": "pH conditions of dialysis buffer for tetramer formation (non-reducing electrophoresis, densitometry)", "assay_type": "physicochemical", "conditions": "dialyzed with refolding buffer B (pH 8.0) to remove guanidine hydrochloride"}, "[2]": {"test": "SPR analysis of interaction between Anti-HER2 VHH-Cupid and Psyche-Duocarmycin (Biacore T200)", "assay_type": "binding", "description": "The surface plasmon resonance (SPR) analysis was performed using a Biacore T200 (Cytiva). […] The association and dissociation rate constants were evaluated using Biacore T200 Evaluation Software version 3 (Cytiva) by bivalent analyte model, and KD values were calculated."}, "[3]": {"system": "Her2-positive cells (KPL-4)", "assay_type": "cell-based", "method": "Her2-positive cells (KPL-4) were seeded on a 96-well plate to result in a cell count of 1×10^3 cells/well and a culture solution amount of 50 μL/well and were then cultured overnight. […] After the dilution series had been prepared, 50μ of the complex was each added to the cells, and the cells are cultured for 6 to 7 days. […] A reagent was added in accordance with the dosage and administration described in the instruction manual, and the resulting cells were then incubated at 37° C. in a CO2 incubator for 1.5 hours. After that, the absorbance at 450 nm was measured, and the mean value was then calculated, followed by background correction. Thereafter, the control was set at 100%, and the cell proliferation percentage to the control under individual conditions was calculated."}, "[4]": {"system": "Her2-positive cells (KPL-4)", "method": "Her2-positive cells (KPL-4) were seeded on a 96-well plate to result in a cell count of 1×10^4 cells/well and a culture solution amount of 50 μL/well and were then cultured overnight. […] A reagent was added in accordance with the dosage and administration described in the instruction manual, and the resulting cells were then incubated at 37° C. in a CO2 incubator for 1.5 hours. […] Thereafter, the control was set at 100%, and the cell proliferation percentage to the control under individual conditions was calculated."}, "[5]": {"test": "pH conditions of dialysis buffer for tetramer formation (non-reducing electrophoresis, densitometry)", "assay_type": "physicochemical", "description": "Then, the sample was put into dialysis tube and dialyzed with buffers (50 mM sodium phosphate, 400 mM arginine HCl, pH 4.0˜8.0). 100 μL of the sample after refolding was dialyzed at 25° C. for 1 hour using 30 mL of buffer and the Mini Dialysis Kit 1 kD (Cytiva). Thereafter, dialysis was performed at 4° C. for 18 hours with 30 mL of fresh buffer, followed by overnight dialysis at 4° C. with 30 mL of fresh buffer. The post-dialysis samples from each pH condition were analyzed by non-reducing electrophoresis and the result image was shown in FIG. 7. […] As shown in FIG. 7 and Table 2, the monomers were equal to or less than 8% and the tetramers were equal to or more than 92% in pH of 6.0 or less, whereas the percentage of monomers increased at a pH of 6.5 or more. At pH 8.0, the same as the pH of refolding buffer B, 81% of the monomers and 19% of the tetramers were present. […] The theoretical pIs of Anti-HER2 VHH and Cupid moieties were approximately 7.6 and 6.5, respectively. Therefore, it is preferable that a buffer for tetramer formation should be pH 6.0 or less to avoid aggregation induced by the Cupid moiety."}}, "note": "Read-outs that look alike come from different tables or passages of the source."}
{"molecule": "Anti-HER2 VHH-Cupid: fusion protein of an anti-HER2 VHH single-domain antibody (SEQ ID NO: 2), Gly-Ser linker and Cupid mutant streptavidin; forms a tetramer (protein, tetramer, forms a tetramer) MQVQLQESGGGSVQAGGSLKLTCAASGYIFNSCGMGWYRQSPGRERELVSRISGDGDTWHKESVKGRFTISQDNVKKTLYLQMNSLKPEDTAVYFCAVCYNLETYWGQGTQVTVSSGGGGSGGGGSGGGGSAEAGITGTWSDQLGDTFIVTAGADGALTGTYENAVGGAESRYVLTGRYDSAPATDGSGTALGWTVAWKNNSKNAHSATTWSGQYVGGADAKINTQWLLTSGTTNANAWKSTLVGHDTFTKVKPSAASHHHHHH", "values": [{"measurement": "oligomeric state after dialysis with refolding buffer B", "setting": "[1]", "result": "almost all of the Anti-HER2 VHH-Cupid were monomeric"}, {"measurement": "association rate constant (Ka1)", "setting": "[2]; Anti-HER2 VHH-Cupid captured via anti-histidine antibody, Psyche-Duocarmycin analyte 10 nM to 0.3125 nM, bivalent analyte model", "result": "1.336×10^4 l/Ms"}, {"measurement": "binding activity to Psyche-Duocarmycin", "setting": "[2]; SPR", "result": "had binding activity to Psyche-Duocarmycin"}, {"measurement": "cytotoxic activity compared with FL2 as vector", "setting": "[3]", "result": "stronger cytotoxic activity than FL2"}, {"measurement": "cytotoxic activity compared with FL2 as vector", "setting": "[4]", "result": "stronger cytotoxic activity than FL2"}, {"measurement": "Monomer band (%)", "setting": "[5]; dialysis buffer pH 4.0", "result": 4, "unit": "%"}, {"measurement": "Tetramer band (%)", "setting": "[5]; dialysis buffer pH 4.0", "result": 96, "unit": "%"}, {"measurement": "Monomer band (%)", "setting": "[5]; dialysis buffer pH 5.0", "result": 6, "unit": "%"}, {"measurement": "Tetramer band (%)", "setting": "[5]; dialysis buffer pH 5.0", "result": 94, "unit": "%"}, {"measurement": "Monomer band (%)", "setting": "[5]; dialysis buffer pH 5.5", "result": 8, "unit": "%"}, {"measurement": "Tetramer band (%)", "setting": "[5]; dialysis buffer pH 5.5", "result": 92, "unit": "%"}, {"measurement": "Monomer band (%)", "setting": "[5]; dialysis buffer pH 6.0", "result": 8, "unit": "%"}, {"measurement": "Tetramer band (%)", "setting": "[5]; dialysis buffer pH 6.0", "result": 92, "unit": "%"}, {"measurement": "Monomer band (%)", "setting": "[5]; dialysis buffer pH 6.5", "result": 13, "unit": "%"}, {"measurement": "Tetramer band (%)", "setting": "[5]; dialysis buffer pH 6.5", "result": 87, "unit": "%"}, {"measurement": "Monomer band (%)", "setting": "[5]; dialysis buffer pH 7.0", "result": 35, "unit": "%"}, {"measurement": "Tetramer band (%)", "setting": "[5]; dialysis buffer pH 7.0", "result": 65, "unit": "%"}, {"measurement": "Monomer band (%)", "setting": "[5]; dialysis buffer pH 7.5", "result": 77, "unit": "%"}, {"measurement": "Tetramer band (%)", "setting": "[5]; dialysis buffer pH 7.5", "result": 23, "unit": "%"}, {"measurement": "Monomer band (%)", "setting": "[5]; dialysis buffer pH 8.0", "result": 81, "unit": "%"}, {"measurement": "Tetramer band (%)", "setting": "[5]; dialysis buffer pH 8.0", "result": 19, "unit": "%"}, {"measurement": "tetramer formation of the refolded sample", "setting": "[5]; dialysis buffers pH 4.0-8.0, FIG. 7", "result": "formed tetramers in pH-dependent manner"}, {"measurement": "percentage of monomers", "setting": "[5]; pH of 6.0 or less", "result": "≤ 8", "unit": "%"}, {"measurement": "percentage of tetramers", "setting": "[5]; pH of 6.0 or less", "result": "≥ 92", "unit": "%"}]}
